Laboratory results: patent US20260209352A1 (Adimab, published 2026)
Changes are numbered by the printed parent chain.

How the values were obtained:
[1] = target: Human CD3εδ-Fc (human) (UniProt P04234); assay: KD of scFv-Fc or IgG on human CD3εδ-Fc; instrument not given; second row for this clone
[2] = target: Human CD3εδ-Fc (human) (UniProt P04234); assay: KD of scFv-Fc or IgG on human CD3εδ-Fc; instrument not given
[3] = target: T1, Human CD3 on Human CD3+ Jurkat cells (human, UniProt P07766 23-207); assay: cell binding hCD3, fold over background
T1 construct: whole, on cells; CD3 complex on cells; also called hCD3

[4] = target: T2, Cynomolgus CD3 on Cyno CD3+ Jurkat cells (cynomolgus, UniProt Q95LI5 22-198); assay: cell binding cCD3, fold over background
T2 construct: whole, on cells; CD3 on cells; also called cCD3

[5] = target: Cyno CD3εδ-Fc (cynomolgus) (UniProt Q95LI8); assay: KD of scFv-Fc or IgG on cyno CD3εδ-Fc; instrument not given
[6] = target: Human CD3εδ-Fc (human) (UniProt P04234); assay: Biacore SPR, monovalent KD, biotinylated human CD3εδ-Fc
[7] = target: T1, Human CD3 on Human CD3+ Jurkat cells; assay: cell binding, human CD3+ Jurkat cells
[8] = target: T2, Cynomolgus CD3 on Cyno CD3+ Jurkat cells; assay: cell binding, cyno CD3+ Jurkat cells

T1 sequence (P07766 23-207): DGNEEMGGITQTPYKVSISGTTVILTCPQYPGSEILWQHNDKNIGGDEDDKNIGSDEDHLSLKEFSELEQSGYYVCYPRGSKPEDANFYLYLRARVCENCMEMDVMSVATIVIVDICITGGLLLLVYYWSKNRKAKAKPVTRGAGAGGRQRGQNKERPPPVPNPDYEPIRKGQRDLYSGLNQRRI
Sequence of Cyno CD3εδ-Fc (cynomolgus) (chain, as listed by the source mutant, chain 1 of 2): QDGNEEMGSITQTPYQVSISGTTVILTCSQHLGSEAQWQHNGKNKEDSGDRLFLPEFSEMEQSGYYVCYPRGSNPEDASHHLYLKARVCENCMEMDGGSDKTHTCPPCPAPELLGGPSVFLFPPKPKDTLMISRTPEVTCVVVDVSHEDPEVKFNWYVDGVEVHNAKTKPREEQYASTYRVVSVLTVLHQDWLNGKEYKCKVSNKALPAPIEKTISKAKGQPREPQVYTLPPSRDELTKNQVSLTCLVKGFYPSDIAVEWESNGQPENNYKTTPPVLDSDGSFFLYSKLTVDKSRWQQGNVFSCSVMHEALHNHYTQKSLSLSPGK
Sequence of Cyno CD3εδ-Fc (cynomolgus) (Q95LI8 22-105, stated change not applied, chain 2 of 2): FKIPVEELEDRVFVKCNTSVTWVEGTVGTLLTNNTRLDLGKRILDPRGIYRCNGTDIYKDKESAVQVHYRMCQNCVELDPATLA
Sequence of Human CD3εδ-Fc (human) (chain, as listed by the source mutant, chain 1 of 2): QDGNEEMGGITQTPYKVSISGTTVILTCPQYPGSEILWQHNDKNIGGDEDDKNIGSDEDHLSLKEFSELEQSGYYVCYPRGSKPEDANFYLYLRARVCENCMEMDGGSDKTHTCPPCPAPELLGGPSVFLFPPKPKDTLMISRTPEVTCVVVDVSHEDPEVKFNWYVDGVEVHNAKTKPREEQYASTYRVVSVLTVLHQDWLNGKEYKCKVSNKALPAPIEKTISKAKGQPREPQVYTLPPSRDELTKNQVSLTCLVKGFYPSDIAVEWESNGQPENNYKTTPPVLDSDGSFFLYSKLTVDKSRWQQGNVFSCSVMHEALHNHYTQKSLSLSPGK
Sequence of Human CD3εδ-Fc (human) (P04234 22-105, stated change not applied, chain 2 of 2): as the sequence (Q95LI8 22-105, stated change not applied, chain 2 of 2) above, with V5I, K15N, V20I, T32S, N33D, N34I, A64T, N74S, L83V counted along it
T2 sequence (Q95LI5 22-198): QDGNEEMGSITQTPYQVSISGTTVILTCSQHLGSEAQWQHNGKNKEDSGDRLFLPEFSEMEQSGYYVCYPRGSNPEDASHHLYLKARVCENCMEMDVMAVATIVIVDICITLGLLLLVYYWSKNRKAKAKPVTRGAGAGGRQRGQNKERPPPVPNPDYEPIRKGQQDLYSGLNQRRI

B1: ADI-42596 (antibody, V domains shown)
VH: QVQLVQSGAEVKKPGASVKVSCKASGFNIKDYYMHWVRQAPGQRLEWIGWIDLENANTVYDAKFQGRVTITRDTSASTAYMELSSLRSEDTAVYYCARDAYGRYFYDVWGQGTLVTVSS
VL: DIVMTQSPDSLAVSLGERATINCKSSQSLLNARTRKNYLAWYQQKPGQPPKLLIYWASTRESGVPDRFSGSGSGTDFTLTISSLQAEDVAVYYCKQSYFRRTFGGGTKVEIK
notes: also called Ab2
Kd [1]: 1.1 nM
Kd [2]: 0.16 nM
Cell Binding hCD3 (FOB) [3]: 29 FOB
Cell Binding cCD3 (FOB) [4]: 46 FOB
Kd [5]: 2.4 nM

B2: ADI-45959 (antibody, V domains shown)
VH: B1 VH
VL: B1 VL with T5S, R35G, E61S, K95V
notes: also called Ab13
Kd [2]: 0.13 nM
Cell Binding hCD3 (FOB) [3]: 19 FOB
Kd [6]: 0.12 nM
Cell Binding Fold Over Background (FOB) [7]: 18 FOB
Cell Binding cCD3 (FOB) [4]: 112 FOB
Cell Binding Fold Over Background (FOB) [8]: 30 FOB
Kd [5]: 1.7 nM

B3: ADI-45975 (antibody, V domains shown)
VH: B1 VH with R103Q
VL: B1 VL
notes: also called Ab11
Kd [2]: 0.067 nM
Cell Binding hCD3 (FOB) [3]: 86 FOB
Kd [6]: 0.21 nM
Cell Binding Fold Over Background (FOB) [7]: 10 FOB
Cell Binding cCD3 (FOB) [4]: 142 FOB
Cell Binding Fold Over Background (FOB) [8]: 17 FOB
Kd [5]: 1.4 nM
